# According to US10738090B2, “Engineered microcompartment protein and related methods and systems of engineering bacterial systems for non-native protein expression and purification” (priority 2017, dated 2020):
# No end group written: not given here.
# B1: HB-EncK71^TEVK138^TEV-His: HBCM2 fused to N-terminus of T. maritima encapsulin; TEV sites after K71 and K138, His-tag; non-cage forming (protein)
# chain: MKWKSFIKKLTKAAKKVVTTAKKPLIVENLYFQGGGGGTEFLKRSFAPLTEKQWQEIDNRAREIFKTQLYGRKFVDVEGPYGWEYAAHPLGEVEVLSDENEVVKWGLRKGGENLYFQGGGSLPLIELRATFTLDLWELDNLERGKPNVDLSSLEETVRKVAEFEDEVIFRGCEKSGVKGLLSFEERKGGGGGENLYFQGHHHHHHGGGGGIECGSTPKDLLEAIVRALSIFSKDGIEGPYTLVINTDRWINFLKEEAGHYPLEKRVEECLRGGKIITTPRIEDALVVSERGGDFKLILGQDLSIGYEDREKDAVRLFITETFTFQVVNPEALILLK
# B2: HB-EncK71^TEV (protein)
# chain: MKWKSFIKKLTKAAKKVVTTAKKPLIVENLYFQGGGGGTEFLKRSFAPLTEKQWQEIDNRAREIFKTQLYGRKFVDVEGPYGWEYAAHPLGEVEVLSDENEVVKWGLRKGGENLYFQGGGSLPLIELRATFTLDLWELDNLERGKPNVDLSSLEETVRKVAEFEDEVIFRGCEKSGVKGLLSFEERKIECGSTPKDLLEAIVRALSIFSKDGIEGPYTLVINTDRWINFLKEEAGHYPLEKRVEECLRGGKIITTPRIEDALVVSERGGDFKLILGQDLSIGYEDREKDAVRLFITETFTFQVVNPEALILLK
# B3: HB-EncK138^TEV-His with the shorter GT linker: HB-EncK138^TEV-His with a GT linker between TEV site and N-terminus of Enc instead of G4T (protein)
# chain: MKWKSFIKKLTKAAKKVVTTAKKPLIVENLYFQGGTEFLKRSFAPLTEKQWQEIDNRAREIFKTQLYGRKFVDVEGPYGWEYAAHPLGEVEVLSDENEVVKWGLRKSLPLIELRATFTLDLWELDNLERGKPNVDLSSLEETVRKVAEFEDEVIFRGCEKSGVKGLLSFEERKGGGGGENLYFQGHHHHHHGGGGGIECGSTPKDLLEAIVRALSIFSKDGIEGPYTLVINTDRWINFLKEEAGHYPLEKRVEECLRGGKIITTPRIEDALVVSERGGDFKLILGQDLSIGYEDREKDAVRLFITETFTFQVVNPEALILLK
# B4: HB-EncD60^TEVK138^TEV-His with the shorter GT linker: HB-EncD60^TEVK138^TEV-His with a GT linker instead of the G4T linker (protein)
# chain: MKWKSFIKKLTKAAKKVVTTAKKPLIVENLYFQGGTEFLKRSFAPLTEKQWQEIDNRAREIFKTQLYGRKFVDVEGPYGWEYAAHPLGEVEVLSDGGENLYFQGGGENEVVKWGLRKSLPLIELRATFTLDLWELDNLERGKPNVDLSSLEETVRKVAEFEDEVIFRGCEKSGVKGLLSFEERKGGGGGENLYFQGHHHHHHGGGGGIECGSTPKDLLEAIVRALSIFSKDGIEGPYTLVINTDRWINFLKEEAGHYPLEKRVEECLRGGKIITTPRIEDALVVSERGGDFKLILGQDLSIGYEDREKDAVRLFITETFTFQVVNPEALILLK
# B5: HB-EncV57^TEVK138^TEV-His with the shorter GT linker: HB-EncV57^TEVK138^TEV-His with a GT linker instead of the G4T linker (protein)
# chain: MKWKSFIKKLTKAAKKVVTTAKKPLIVENLYFQGGTEFLKRSFAPLTEKQWQEIDNRAREIFKTQLYGRKFVDVEGPYGWEYAAHPLGEVEVGGENLYFQGGGLSDENEVVKWGLRKSLPLIELRATFTLDLWELDNLERGKPNVDLSSLEETVRKVAEFEDEVIFRGCEKSGVKGLLSFEERKGGGGGENLYFQGHHHHHHGGGGGIECGSTPKDLLEAIVRALSIFSKDGIEGPYTLVINTDRWINFLKEEAGHYPLEKRVEECLRGGKIITTPRIEDALVVSERGGDFKLILGQDLSIGYEDREKDAVRLFITETFTFQVVNPEALILLK
# B6: HB-EncK138^TEV-His: HBCM2, TEV site, G4T-linker fused to N-terminus of Enc; TEV site and His6-tag after K138; cage forming (protein)
# chain: MKWKSFIKKLTKAAKKVVTTAKKPLIVENLYFQGGGGGTEFLKRSFAPLTEKQWQEIDNRAREIFKTQLYGRKFVDVEGPYGWEYAAHPLGEVEVLSDENEVVKWGLRKSLPLIELRATFTLDLWELDNLERGKPNVDLSSLEETVRKVAEFEDEVIFRGCEKSGVKGLLSFEERKGGGGGENLYFQGHHHHHHGGGGGIECGSTPKDLLEAIVRALSIFSKDGIEGPYTLVINTDRWINFLKEEAGHYPLEKRVEECLRGGKIITTPRIEDALVVSERGGDFKLILGQDLSIGYEDREKDAVRLFITETFTFQVVNPEALILLK
# B7: HB-EncD60^TEVK138^TEV-His: HB-Enc fusion with TEV site after D60 plus TEV-His insertion after K138; cage forming (protein)
# chain: MKWKSFIKKLTKAAKKVVTTAKKPLIVENLYFQGGGGGTEFLKRSFAPLTEKQWQEIDNRAREIFKTQLYGRKFVDVEGPYGWEYAAHPLGEVEVLSDGGENLYFQGGGENEVVKWGLRKSLPLIELRATFTLDLWELDNLERGKPNVDLSSLEETVRKVAEFEDEVIFRGCEKSGVKGLLSFEERKGGGGGENLYFQGHHHHHHGGGGGIECGSTPKDLLEAIVRALSIFSKDGIEGPYTLVINTDRWINFLKEEAGHYPLEKRVEECLRGGKIITTPRIEDALVVSERGGDFKLILGQDLSIGYEDREKDAVRLFITETFTFQVVNPEALILLK
# B8: HB-EncV57^TEVK138^TEV-His: HB-Enc fusion with TEV site after V57 plus TEV-His insertion after K138; cage forming (protein)
# chain: MKWKSFIKKLTKAAKKVVTTAKKPLIVENLYFQGGGGGTEFLKRSFAPLTEKQWQEIDNRAREIFKTQLYGRKFVDVEGPYGWEYAAHPLGEVEVGGENLYFQGGGLSDENEVVKWGLRKSLPLIELRATFTLDLWELDNLERGKPNVDLSSLEETVRKVAEFEDEVIFRGCEKSGVKGLLSFEERKGGGGGENLYFQGHHHHHHGGGGGIECGSTPKDLLEAIVRALSIFSKDGIEGPYTLVINTDRWINFLKEEAGHYPLEKRVEECLRGGKIITTPRIEDALVVSERGGDFKLILGQDLSIGYEDREKDAVRLFITETFTFQVVNPEALILLK
# B9: TEV protease: Tobacco etch virus protease, recognition sequence ENLYFQ/G; negative control alone (protein)
# chain: GESLFKGPRDYNPISSTICHLTNESDGHTTSLYGIGFGPFIITNKHLFRRNNGTLLVQSLHGVFKVKNTTTLQQHLIDGRDMIIIRMPKDFPPFPQKLKFREPQREERICLVTTNFQTKSMSSMVSDTSCTFPSSDGIFWKHWIQTKDGQCGSPLVSTRDGFIVGIHSASNFTNTNNYFTSVPKNFMELLTNQEAQQWVSGWRLNADSVLWGGHKVFMSKPEEPFQPVKEATQLMNELVYSQ
# How the values were obtained:
# E. coli BL21(DE3) cells = assay type: cell-based; settings: for concentration showing significant anti-bacterial activity: BL21(DE3) E. coli
# Description: Growth inhibition activity can be tested against E. coli BL21(DE3) cells. Overnight cultures of cells were diluted to 200 μL of an initial OD600 of 0.05-0.1 in LB medium. Diluted cultures were grown at 37° C., 1000 rpm in a PHMP-4 Microplate Shaker (Grant Instruments, Cambridge, England). Protein was added to the culture at an OD600 of 0.1-0.2. Growth measured by OD600 was monitored over time and were conducted in triplicate. TEV-digested material contained HB-Enc fusion protein (0.5 mg/mL) that was incubated with TEV protease (0.5 U/mL) overnight for 17 h at 4° C.
# pathogens = settings: cited from earlier work
# [1] = Proteolysis of HB fusion constructs in C43(DE3) cell lysate (SDS-PAGE, anti-His Western blot); set-up: species or system E. coli
# Description: In particular, in order to perform the testing, all DNA plasmids were transformed and expressed in C43(DE3) cells as described in Example 12, except that cells were grown in 25 mL of LB medium in 150-mL flasks. IPTG induction was conducted overnight for 17 h at 18° C. to enhance soluble protein expression. Cells were harvested and lysed also as described in Example 12.
# To test for proteolysis in cell lysate, cells expressing the HB-Enc constructs from 25 mL of culture were harvested and resuspended in phosphate buffer (50 mM sodium phosphate pH 8.0, 500 mM NaCl) and 10 U/mL of DNaseI. Cells were lysed via a French Pressure cell at 14,000 psi and then centrifuged at 12,000 g, 4° C. for 25 min. The supernatant (soluble) fraction was collected and incubated at 4° C. overnight. Samples for SDS-PAGE analysis were collected immediately after lysis and after overnight incubation.
# As controls, samples after BPER-II lysis were also prepared. Samples were resolved on an any-kDa SDS-PAGE gel (Bio-Rad) and stained with Coomassie blue. For Western blot analysis, samples were resolved on an any-kDa and blotted to a PVDF membrane using a Transblot Turbo System (Bio-Rad) at 2.5 A for 7 min. Samples were probed using a mouse anti-His-tag primary antibody and a rabbit anti-Mouse-HRP conjugated secondary antibody (both from Bio-Rad). HRP was detected on the membrane using chemiluminescence.
# TEV protease = target: T1, TEV protease (Tobacco etch virus, UniProt P04517); assay type: biochemical; settings: for extent of TEV protease digestion / release of HBCM2 peptide: exogenous TEV protease, overnight at 4° C., G4T linker; for release of HB peptide by TEV protease: GT linker instead of G4T linker between TEV site and N-terminus of Enc, SDS-PAGE
# T1 construct: Tobacco etch virus protease (TEV protease)
# Description: All purified constructs were digested by addition of exogenous TEV protease, followed by overnight incubation at 4° C. Products were resolved on a 16.5% Tris-Tricine gel (Bio-Rad).
# [2] = French press lysis without BPER-II, then overnight incubation at 4° C.
# [3] = immediately after French press lysis
molecule,measurement,setting,value
"GNNRPVYIPQPRPPHPRI [native Ap peptide, Apidaecin Ia, reference compound]",concentration showing significant anti-bacterial activity,E. coli BL21(DE3) cells; chemically synthesized peptide,≥ 100 µg/mL
same,bactericidal activity,pathogens,high bactericidal activity
MKWKSFIKKLTKAAKKVVTTAKKPLIVENLYFQ [M-HBCM2-TEV],concentration showing significant anti-bacterial activity,E. coli BL21(DE3) cells; chemically synthesized peptide,2 µg/mL
same,MIC,"E. coli BL21(DE3) cells; chemically synthesized peptide, E. coli BL21(DE3), FIG. 31 Panel B",< 5 µg/mL
Cecropin PR-39,bactericidal activity,pathogens,high bactericidal activity
B1,truncated products on expression (proteolysis),"[1]; C43(DE3) cells, anti-His-tag Western blot",some truncated products
same,proteolysis in cell lysate,[1]; [2],completely proteolyzed
same,proteolysis in cell lysate,[1]; [3],significantly degraded
same,growth inhibition of E. coli,E. coli BL21(DE3) cells; undigested fusion protein at 40 μg/mL,did not inhibit the growth
same,extent of TEV protease digestion / release of HBCM2 peptide,TEV protease,apparent complete digestion
B2,proteolysis in cell lysate,[1]; [2],completely proteolyzed
same,proteolysis in cell lysate,[1]; [3],significantly degraded
same,extent of TEV protease digestion / release of HBCM2 peptide,TEV protease,apparent complete digestion
B3,release of HB peptide by TEV protease,TEV protease,did not result in detectable release of HB peptide
B4,release of HB peptide by TEV protease,TEV protease,did not result in detectable release of HB peptide
B5,release of HB peptide by TEV protease,TEV protease,did not result in detectable release of HB peptide
B6,proteolysis in cell lysate,[1]; [2],resistant to proteolysis
B7,proteolysis in cell lysate,[1]; [2],resistant to proteolysis
B8,proteolysis in cell lysate,[1]; [2],resistant to proteolysis
B9,anti-bacterial / growth inhibition activity,"E. coli BL21(DE3) cells; E. coli BL21(DE3), concentration not given",no growth inhibition
